First the molecules themselves.
B3: ERCC192-214 (central domain of ERCC1, N-terminal His6 tag) (other)
chain: MGSSHHHHHHSQDPLKPGAKSNSIIVSPRQRGNPVLKFVRNVPWEFGDVIPDYVLGQSTCALFLSLRYHNLHPDYIHGRLQSLGKNFALRVLLVQVDVKDPQQALKELAKMCILADCTLILAWSPEEAGRYLETYKA
notes: 15N-labeled (and perdeuterated) in some NMR experiments

Entries after “also recorded” stand apart in the source; their conditions may differ. Read-outs that look alike come from different tables or passages of the source. A value given as a limit tells only on which side of the number the result lay.

Series [1] deals with XPA (endogenous, in UV20 Chinese Hamster Ovary cells). The series can be described thus: cell-based or functional assay.
The target of the next series is T1, ERCC1-XPF (Homo sapiens, UniProt P07992).
T1 sequence (P07992 1-297): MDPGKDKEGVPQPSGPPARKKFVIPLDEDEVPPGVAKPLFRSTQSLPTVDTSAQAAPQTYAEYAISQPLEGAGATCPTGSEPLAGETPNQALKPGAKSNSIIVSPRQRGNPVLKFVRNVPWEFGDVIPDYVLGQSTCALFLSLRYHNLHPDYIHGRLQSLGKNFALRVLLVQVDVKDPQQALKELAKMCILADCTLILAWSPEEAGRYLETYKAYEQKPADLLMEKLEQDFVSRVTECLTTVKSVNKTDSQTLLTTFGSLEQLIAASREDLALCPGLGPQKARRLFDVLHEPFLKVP
T1 sequence (Q92889 1-916 partner): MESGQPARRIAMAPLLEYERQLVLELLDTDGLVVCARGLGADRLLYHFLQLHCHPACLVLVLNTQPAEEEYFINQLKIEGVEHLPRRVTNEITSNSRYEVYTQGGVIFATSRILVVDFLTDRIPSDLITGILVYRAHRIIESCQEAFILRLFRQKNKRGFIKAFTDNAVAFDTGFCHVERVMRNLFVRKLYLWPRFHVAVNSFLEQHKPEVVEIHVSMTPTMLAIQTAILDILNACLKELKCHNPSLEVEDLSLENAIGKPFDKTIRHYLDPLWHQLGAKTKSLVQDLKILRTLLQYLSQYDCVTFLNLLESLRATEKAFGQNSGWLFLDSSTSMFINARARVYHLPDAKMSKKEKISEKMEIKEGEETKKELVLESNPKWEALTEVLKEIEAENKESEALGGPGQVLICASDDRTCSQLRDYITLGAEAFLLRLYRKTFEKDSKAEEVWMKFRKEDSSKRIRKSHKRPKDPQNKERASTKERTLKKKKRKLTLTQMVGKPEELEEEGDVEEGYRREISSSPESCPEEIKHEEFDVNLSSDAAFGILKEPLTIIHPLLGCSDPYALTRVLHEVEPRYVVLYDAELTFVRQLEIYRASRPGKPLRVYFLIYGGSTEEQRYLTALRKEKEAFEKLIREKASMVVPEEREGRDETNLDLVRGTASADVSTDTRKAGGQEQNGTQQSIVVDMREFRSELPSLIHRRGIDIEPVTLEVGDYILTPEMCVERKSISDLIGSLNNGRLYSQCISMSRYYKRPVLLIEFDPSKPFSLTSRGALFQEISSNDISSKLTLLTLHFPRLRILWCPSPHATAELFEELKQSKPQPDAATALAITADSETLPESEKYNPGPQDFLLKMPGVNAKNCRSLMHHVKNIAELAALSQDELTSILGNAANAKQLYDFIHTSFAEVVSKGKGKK
The series can be described thus: Nuclease assay: incision of stem-loop DNA substrate by purified ERCC1-XPF. To be noted: 92 μM peptide, 0.4 mM MnCl2. It counts as biochemical. As for the experimental part:
Nuclease assay. A substrate consisting of a 12 base pair stem with a 22 nucleotide loop (5′-[…](T)22[…]; SEQ ID NO:7) was 5′ end labeled using a T4 polynucleotide kinase and [γ-^32P]-ATP. […] The final reaction volume was 15 μl.

The test system of series [2] is NER activity in HeLa cell extracts. The series can be described thus: In vitro NER assay: excision of a 1,3-intrastrand cisplatin adduct from plasmid in HeLa cell extract with XPA peptide. In kind it is biochemical. To be noted: HeLa cell free extract, plasmid with 1,3-cisplatin intrastrand crosslink, peptide 46 nM to 92 μM.
In another series the target is T2, ERCC192-214 (Homo sapiens, UniProt P07992).
T2 construct: an ERCC1 central domain fragment consisting of amino acids 92-214 preceded by an N-terminal hexahistidine tag; made in house; host or cells: E. coli BL21(DE3), M9 minimal media with 15N-labeled NH4Cl
T2 sequence (P07992 92-214): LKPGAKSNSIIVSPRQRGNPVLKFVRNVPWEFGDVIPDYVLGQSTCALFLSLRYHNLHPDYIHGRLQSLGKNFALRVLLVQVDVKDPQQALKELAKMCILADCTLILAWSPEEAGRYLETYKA
The series can be described thus: 15N HSQC NMR chemical shift perturbation of 15N-labeled ERCC1. It counts as binding. The conditions noted are these: 15N HSQC. As for the experimental part: FIG. 3 illustrates the binding of XPA67-80 in a shallow groove of ERCC1. (A) A comparison of the two dimensional HSQC spectra for ^15N-labeled ERCC192-214 in the presence and absence of an unlabeled XPA67-80 peptide. The ^15N HSQC spectra reveal significant chemical shift changes for some ERCC1 residues (labeled) in the absence or presence of unlabeled XPA67-80. (B) Combined average chemical shift perturbations are calculated as Δχave=[((Δχ1H)^2+(Δχ15N/5)^2)/2)]^1/2 for each backbone amide of ERCC1 and shown as a histogram.
NMR experiments and determination of the structure of XPA-ERCC1 complex. All NMR data were acquired in the NMR Buffer described above. […] Backbone assignments of the free ERCC192-214 and ERCC1-XPA67-80 complex were performed using a standard set of triple-resonance experiments: HNCA/HN(CO)CA, HN(CA)CB/HN(COCA)CB and HNCO/HN(CA)CO.
Identification of the ERCC1 binding site in complex with XPA. The binding site for XPA on the surface of ERCC1 (FIG. 2B) was identified using two dimensional HSQC experiments. […] The ^15N HSQC spectrum of the ERCC1-XPA complex is consistent with a slow-exchange regime, implying a dissociation equilibrium constant below 1 μM for the complex. The XPA binding site on the ERCC1 central domain was identified using the backbone assignments for […] alone and in complex with XPA (see below). […]

Series [3] concerns NER activity in XPF-deficient cell extracts. The series can be described thus: In vitro NER assay in XPF-deficient cell extract supplemented with wild-type or mutant ERCC1-XPF. It counts as biochemical. To be noted: cisplatin crosslink plasmid. The text has this: Mutations in the XPA binding pocket of ERCC1 abolish NER in vitro. […] Mutant ERCC1 proteins were generated containing N110A or Y145A single mutations or a N110A/Y145A double mutation, and their activities compared to that of the wild-type ERCC1 protein.

The subject of series [4] is UV20 Chinese Hamster Ovary cells. The series can be described thus: Restoration of UV resistance in ERCC1-deficient UV20 cells by lentivirally expressed ERCC1. In kind it is cell-based. As for the experimental part: Mutations in the XPA binding pocket of ERCC1 abolish NER in living cells. The ERCC1-N110A/Y145A double mutant protein was tested for its ability to interact with XPA and support NER activity in living cells. The double mutant and wild-type ERCC1 proteins were introduced into ERCC1-deficient UV20 Chinese Hamster Ovary cells using a lentiviral expression system. Proper expression of the ERCC1 proteins was detected using immunofluorescent detection using an antibody against the HA tag present on the lentivirally expressed ERCC1 protein. Two main parameters were compared for the wild-type and mutant proteins. Global NER activity was assessed by measuring the ability of the wild-type and double mutant ERCC1 proteins to restore UV resistance in UV-20 cells.

For another series, the system named is UV20 cells. The series can be described thus: Recruitment of ERCC1 and XPA to local UV damage foci (irradiation through polycarbonate filters, immunofluorescence). It counts as cell-based, Chinese Hamster. To be noted: UV-irradiated UV20 cells, 5 μM pore filters. As for the experimental part:
The interaction of ERCC1 and XPA was investigated in living cells as follows (Volker et al., 2001, Gillet and Schärer, 2006): Cells were irradiated with UV irradiation through polycarbonate filters that are only translucent to UV light through their […]. This allows for the formation of spatially defined subnuclear region UV damage that can be detected as defined foci in fixed cells by antibodies against UV lesions in DNA as well as with antibodies against NER proteins recruited to these sites during the repair process.

In series [5] the target is B3. The series can be described thus: sedimentation equilibrium analytical ultracentrifugation.
The target in a further series is T3, XPA1-273 (Homo sapiens (Human), UniProt P23025 1-273).
T3 construct: Cloned into pET19bpps; His10 tag cleaved with Prescission protease; also called full length XPA protein
T3 sequence (P23025 whole entry): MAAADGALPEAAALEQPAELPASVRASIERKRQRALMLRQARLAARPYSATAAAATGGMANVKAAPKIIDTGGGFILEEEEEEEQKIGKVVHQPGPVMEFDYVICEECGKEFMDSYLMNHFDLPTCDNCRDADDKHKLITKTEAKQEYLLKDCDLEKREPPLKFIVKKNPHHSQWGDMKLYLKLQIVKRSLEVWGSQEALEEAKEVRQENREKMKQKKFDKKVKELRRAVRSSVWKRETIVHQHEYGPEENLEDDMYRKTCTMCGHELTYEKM
The series can be described thus: gel filtration (S100) of the complex; ERCC1 central domain construct (92-214 or 96-214) not specified. For orientation: In gel filtration, larger molecules generally elute earlier.

The target of the next series is T4, XPA59-273 (Homo sapiens (Human), UniProt P23025 59-273).
T4 construct: Cloned into pET19bpps; His10 tag cleaved with Prescission protease
The series is described as above.

Series [6] deals with B3. The series can be described thus: 15N HSQC of the ERCC1-XPA complex, slow-exchange regime.
The target of series [7] is T5, ERCC196-214 (central domain of ERCC1, N-terminal His6 tag) (Homo sapiens (Human), UniProt P07992 96-214).
T5 construct: not shown: N-terminal His6 tag
T5 sequence: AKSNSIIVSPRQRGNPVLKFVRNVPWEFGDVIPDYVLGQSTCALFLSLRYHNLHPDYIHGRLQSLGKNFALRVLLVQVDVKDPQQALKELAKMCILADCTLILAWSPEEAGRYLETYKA
The series can be described thus: competition with 6FAM-labeled single-stranded 40mer DNA for ERCC1, fluorescence anisotropy, fit to a competitive binding model (Eq. 9). For orientation: In fluorescence polarisation assays a small probe gives low polarisation when free and higher when bound to something large.

The target of series [8] is T5, ERCC196-214 (central domain of ERCC1, …). The series can be described thus: competition titration, fluorescence anisotropy; reference is DNA binding to the ERCC1 central domain (1.5 µM).
Series [9] has as its target B3. The series can be described thus: competition with 6FAM-labeled single-stranded 40mer DNA for ERCC1, fluorescence polarization, best fit to Eq. 9 (legend of FIG. 7).
The target in series [10] is B3. The series can be described thus: 15N HSQC of 15N-labeled ERCC1 with added mutant peptide (data not shown).

For the molecule “ERCC1-N110A/Y145A double mutant protein with HA tag, lentivirally expressed in UV20 Chinese Hamster Ovary cells (from UniProt P07992 1-297)”, the UV resistance of UV20 cells in [1] is under 50%.

In the case of “XPA67-80^F75A: mutant XPA67-80 peptide with alanine substitution at Phe75 (KIIDTGGGAILEEE)”, the “effect on intrinsic nuclease activity of ERCC1-XPF” value with ERCC1-XPF is “do not affect”. In addition, in series [2], the “effect on NER excision of the lesion-containing oligonucleotide” value is recorded as “did not affect NER activity; also recorded: has no effect”. Further, in the series with ERCC192-214, the “binding to 15N-labeled ERCC1 by chemical shift perturbation” value is recorded as “does not bind to ERCC1”.

Turning to “wild-type ERCC1: wild-type ERCC1 protein, expressed as heterodimer with XPF in insect cells or lentivirally in UV20 cells”, in series [3], the “NER activity restored by ERCC1 (heterodimer with XPF)” value was “restored NER activity”. In addition, the “restoration of UV resistance” value in series [4] (doses of 1, 2, 4 and 10 J/m^2) is recorded as “fully restored UV resistance”. Moreover, in the series on UV20 cells, the “recruitment of ERCC1 to sites of nuclear UV damage” value is reported as “colocalized at sites containing 6-4 photoproducts”.

B1: ERCC1-N110A/Y145A: mutant ERCC1 protein with N110A/Y145A double mutation (protein)
chain: MDPGKDKEGVPQPSGPPARKKFVIPLDEDEVPPGVAKPLFRSTQSLPTVDTSAQAAPQTYAEYAISQPLEGAGATCPTGSEPLAGETPNQALKPGAKSNSIIVSPRQRGAPVLKFVRNVPWEFGDVIPDYVLGQSTCALFLSLRAHNLHPDYIHGRLQSLGKNFALRVLLVQVDVKDPQQALKELAKMCILADCTLILAWSPEEAGRYLETYKAYEQKPADLLMEKLEQDFVSRVTECLTTVKSVNKTDSQTLLTTFGSLEQLIAASREDLALCPGLGPQKARRLFDVLHEPFLKVP
modifications: left off: small tags and cut ends
notes: mutant ERCC1 protein with N110A/Y145A double mutation
Consider B1, for which, in series [3], the “NER activity restored by ERCC1 (heterodimer with XPF)” value is recorded as “only marginal NER activity”. Also, the “restoration of UV resistance” value in [4] is “less than 50%”. Also, in the series with UV20 cells, the “recruitment of ERCC1 to sites of nuclear UV damage” value is “not recruited to sites of active NER”.

B2: XPA59-93 (peptide)
peptide: MANVKAAPKIIDTGGGFILEEEEEEEQKIGKVVHQ
notes: Expressed in E. coli from pET19bpps; The N-terminal (His)10 tag was cleaved with Prescission protease; 15N-labeled in some NMR experiments; also called XPA59-93 peptide; XPA59-93 fragment
Turning to B2, the binding result in [5] is on record as “binds”.

Regarding B3, the binding result with XPA1-273 and with XPA59-273 was “binds” in each case.

B4: XPA67-80 peptide (peptide)
peptide: KIIDTGGGFILEEE
notes: Synthetic peptide made by solid phase methods, residues 67-80 of XPA; also called XPA peptide; synthetic XPA fragment
In the case of B4, the Kd in series [6] is under 1 µM; in [7], 0.54 µM; in series [9] it was 0.3 µM. Further, the “fold higher affinity than single stranded DNA” value in series [8] is about 3 fold.

B5: XPA67-80^F75A mutant peptide (peptide)
peptide: KIIDTGGGAILEEE
notes: Synthetic peptide, alanine substitution at Phe75 of XPA67-80
Take B5: in series [10], the binding result is listed as “no binding”.

Usually Kd stands for a measure of binding affinity in units of concentration.

The values are drawn from patent publication US20100331233A1, “CRYSTAL OF XPA AND ERCC1 COMPLEX AND USES THEREOF” (priority 2007, published 2010).
